Measurements: patent publication US20240010673A1 (ARIZONA BOARD OF REGENTS ON BEHALF OF THE UNIVERSITY OF …, published 2024)

Molecular target: the molecule itself
Assay: cell-based or functional assay

B1: P-C24-P (other)
chain: MGSGSGSAPQMLRELQETNAALQDVRELLRQQVKEITFLKNTVMESDASGASYRDPMGAGAGAGPEGAGAGAGPEGAGAGAGPEGAGAGAGPEGAGAGAGPEGAGAGAGPEGAGAGAGPEGAGAGAGPEGAGAGAGPEGAGAGAGPEGARMPTSYRDPMGAGAGAGPEGAGAGAGPEGAGAGAGPEGAGAGAGPEGAGAGAGPEGAGAGAGPEGAGAGAGPEGAGAGAGPEGAGAGAGPEGAGAGAGPEGARMPTSYRDPMGAGAGAGPEGAGAGAGPEGAGAGAGPEGAGAGAGPEGARMPEFAPQMLRELQETNAALQDVRELLRQQVKEITFLKNTVMESDASGKLAAALEHHHHHH
In the case of B1, the “half-life of P coiled-coil cross-linked hydrogel in bioerosion test at 25 C” value is reported as about 2.6 h.
